The results in this text go back to patent US20030130484A1, “Inhibitors and disassemblers of fibrillogenesis” (priority 2001, published 2003).

The experiment has as its target human Aβ1-40 peptide (human). Description: cell-based or functional assay.

Sequence of human Aβ1-40 peptide (human) (peptide, as listed by the source): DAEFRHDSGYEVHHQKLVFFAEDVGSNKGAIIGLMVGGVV

With Ac-Aβ16-22 (Peptide VI), the IC50 of inhibition of Aβ40 fibrillogenesis (inhibitor:Aβ ratio) was determined as 10, the Inhibition of Fibrillogenesis IC50 (thioflavin fluorescence) (inhibitor:Aβ40 molar ratio) came out at 8.4, the Inhibition of Fibrillogenesis ICmax turned out to be 100% and the Inhibition of Fibrilogenesis IC50 (µM) is 8.4 µM. The same substance registered an Inhibition of Fibrilogenesis ICmax (%) of 100%.

On to Anth-Aβ16-20 (peptide), for which the Inhibition of Fibrilogenesis IC50 (µM) stood at 0.3 µM and the Inhibition of Fibrilogenesis ICmax (%) was 100%.

Regarding Aβ16-22 (peptide), the Inhibition of Fibrillogenesis IC50 (thioflavin fluorescence) (inhibitor:Aβ40 molar ratio) was 1.1, the Inhibition of Fibrillogenesis ICmax stood at 23%, the Inhibition of Fibrilogenesis IC50 (µM) worked out at 1.1 µM and the Inhibition of Fibrilogenesis ICmax (%) amounted to 23%. Further, the percent inhibition of fibrillogenesis at concentrations at which Aβ16-22m inhibited completely was in the range of 10 to 20%.
